How the values were obtained:
[1] = biological target: purified bovine cation-independent mannose 6-phosphate receptor (CI-MPR) (bovine) (UniProt P08169); assay: plate assay: conditioned medium on immobilized bovine CI-MPR, bound enzyme by 4-MU activity
[2] = biological target: purified bovine cation-independent mannose 6-phosphate receptor (CI-MPR) (bovine) (UniProt P08169); assay: plate assay: conditioned medium on immobilized bovine CI-MPR, bound enzyme by 4-MU activity, linear range points

Sequence of UniProt P08169 (P08169 45-2313 limits assumed): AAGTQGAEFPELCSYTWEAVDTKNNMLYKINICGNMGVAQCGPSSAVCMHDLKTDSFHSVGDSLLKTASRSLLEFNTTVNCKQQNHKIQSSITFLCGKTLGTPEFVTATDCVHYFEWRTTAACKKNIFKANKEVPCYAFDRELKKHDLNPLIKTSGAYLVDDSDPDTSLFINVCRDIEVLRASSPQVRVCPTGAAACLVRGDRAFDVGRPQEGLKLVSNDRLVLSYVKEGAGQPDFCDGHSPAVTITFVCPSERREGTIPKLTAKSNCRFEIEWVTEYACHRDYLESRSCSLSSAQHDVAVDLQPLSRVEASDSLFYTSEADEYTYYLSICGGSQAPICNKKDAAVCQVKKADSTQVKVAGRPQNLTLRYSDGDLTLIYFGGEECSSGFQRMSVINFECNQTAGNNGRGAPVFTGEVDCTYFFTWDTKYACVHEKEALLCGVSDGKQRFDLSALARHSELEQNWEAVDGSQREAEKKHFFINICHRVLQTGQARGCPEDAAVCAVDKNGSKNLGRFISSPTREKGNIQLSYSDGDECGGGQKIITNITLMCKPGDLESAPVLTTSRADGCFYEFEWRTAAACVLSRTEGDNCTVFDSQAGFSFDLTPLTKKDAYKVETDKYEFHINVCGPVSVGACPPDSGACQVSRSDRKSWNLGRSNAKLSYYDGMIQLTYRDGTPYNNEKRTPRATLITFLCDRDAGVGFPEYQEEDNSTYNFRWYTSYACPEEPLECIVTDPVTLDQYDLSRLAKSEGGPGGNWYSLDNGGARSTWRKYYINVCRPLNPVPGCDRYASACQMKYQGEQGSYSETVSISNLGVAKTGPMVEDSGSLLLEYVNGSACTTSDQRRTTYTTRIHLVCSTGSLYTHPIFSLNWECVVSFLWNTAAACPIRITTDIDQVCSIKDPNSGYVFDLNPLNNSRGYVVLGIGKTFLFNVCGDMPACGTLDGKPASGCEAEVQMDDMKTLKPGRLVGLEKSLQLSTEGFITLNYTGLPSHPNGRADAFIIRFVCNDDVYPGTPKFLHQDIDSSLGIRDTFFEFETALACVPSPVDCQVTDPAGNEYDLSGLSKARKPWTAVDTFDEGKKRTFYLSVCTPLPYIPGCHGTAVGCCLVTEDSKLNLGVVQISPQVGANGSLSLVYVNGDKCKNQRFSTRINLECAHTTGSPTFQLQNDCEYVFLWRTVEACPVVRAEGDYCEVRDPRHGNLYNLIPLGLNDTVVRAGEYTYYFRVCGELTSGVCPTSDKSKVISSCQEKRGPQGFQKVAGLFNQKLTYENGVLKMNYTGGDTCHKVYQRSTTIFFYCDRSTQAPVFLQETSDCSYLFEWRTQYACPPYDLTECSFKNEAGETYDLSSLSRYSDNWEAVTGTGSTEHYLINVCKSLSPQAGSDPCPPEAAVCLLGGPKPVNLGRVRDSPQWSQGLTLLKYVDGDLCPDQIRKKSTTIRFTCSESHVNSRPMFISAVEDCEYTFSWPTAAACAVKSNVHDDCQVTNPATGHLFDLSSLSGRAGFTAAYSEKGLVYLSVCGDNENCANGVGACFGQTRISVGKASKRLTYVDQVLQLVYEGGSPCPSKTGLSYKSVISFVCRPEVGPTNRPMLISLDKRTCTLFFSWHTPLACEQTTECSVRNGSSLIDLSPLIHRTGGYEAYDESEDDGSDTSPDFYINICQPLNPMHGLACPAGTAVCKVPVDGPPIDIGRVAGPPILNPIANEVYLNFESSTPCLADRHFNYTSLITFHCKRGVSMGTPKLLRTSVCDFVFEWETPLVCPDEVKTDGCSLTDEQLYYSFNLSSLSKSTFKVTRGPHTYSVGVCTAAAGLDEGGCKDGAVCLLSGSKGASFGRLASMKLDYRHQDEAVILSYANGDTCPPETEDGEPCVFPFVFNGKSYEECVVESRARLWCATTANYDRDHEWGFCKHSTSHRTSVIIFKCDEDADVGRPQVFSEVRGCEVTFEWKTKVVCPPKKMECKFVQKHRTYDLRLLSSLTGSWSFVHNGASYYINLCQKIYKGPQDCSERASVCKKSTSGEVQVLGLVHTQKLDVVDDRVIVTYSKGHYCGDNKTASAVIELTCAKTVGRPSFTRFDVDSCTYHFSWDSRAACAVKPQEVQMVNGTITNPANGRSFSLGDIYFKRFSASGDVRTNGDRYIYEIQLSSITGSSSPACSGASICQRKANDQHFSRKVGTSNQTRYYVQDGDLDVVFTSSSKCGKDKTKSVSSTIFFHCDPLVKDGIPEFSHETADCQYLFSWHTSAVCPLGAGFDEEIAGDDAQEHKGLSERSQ

With “human alpha-galactosidase (GLA) produced from GLA single plasmid in Expi293 cells (from UniProt P06280 32-429) (enzyme)” the overall binding percentage [1] was 33.1%.
With “human alpha-galactosidase (GLA) produced from bicistronic plasmid pLL51 in Expi293 cells (from UniProt P06280 32-429) (enzyme)” the fold of binding percentage against GLA sample [1] was 2 fold and the overall binding percentage [1] was 62.1%.
With “human acid beta-glucosidase (GBA) produced by co-transfection of GBA plasmid and CMV-S1S3 plasmid in Expi293 cells (from UniProt P04062 40-536) (enzyme)” the percentage of receptor binding [2] was 43%.
“human acid beta-glucosidase (GBA) produced from GBA single expression plasmid in Expi293 cells (endogenous phosphotransferase) (from UniProt P04062 40-536) (enzyme)” gave a percentage of receptor binding [2] of 4.5%.
With “human acid beta-glucosidase (GBA) produced from bicistronic plasmid pLL11 (pCMV-hGBA-IRES-S1S3) in Expi293 cells (from UniProt P04062 40-536) (enzyme)” the percentage of receptor binding [2] was 44% and the fold of percentage bound against GBA produced by endogenous phosphotransferase [1] was 10 fold.
